Data taken from US20220048967A1 (published 2022).
Numbered stars: 1 amine (or outer) side, 2 acyl side, 3 side chain; on linkers, the order of the positions; unused ones are H or OH. Square brackets hold non-standard residues; d marks the D form. Side chains are listed from the residue outwards. Ends that are not written are not given here. * marks the point of attachment. C20 diacid = O=C(O)CCCCCCCCCCCCCCCCCCC(=O)*; αMePhe(2-F) = C[C@](N)(Cc1ccccc1F)C(=O)O; γGlu = O=C(O)[C@H](CCC(=O)[*:2])N[*:1]; αMeF = C[C@](N)(Cc1ccccc1)C(=O)O; AEEA = NCCOCCOCC(=O)O; Aib = CC(C)(N)C(=O)O

T1: human gastric inhibitory peptide receptor (GIPR) (human, UniProt P48546 22-466)
T1 sequence (looked up): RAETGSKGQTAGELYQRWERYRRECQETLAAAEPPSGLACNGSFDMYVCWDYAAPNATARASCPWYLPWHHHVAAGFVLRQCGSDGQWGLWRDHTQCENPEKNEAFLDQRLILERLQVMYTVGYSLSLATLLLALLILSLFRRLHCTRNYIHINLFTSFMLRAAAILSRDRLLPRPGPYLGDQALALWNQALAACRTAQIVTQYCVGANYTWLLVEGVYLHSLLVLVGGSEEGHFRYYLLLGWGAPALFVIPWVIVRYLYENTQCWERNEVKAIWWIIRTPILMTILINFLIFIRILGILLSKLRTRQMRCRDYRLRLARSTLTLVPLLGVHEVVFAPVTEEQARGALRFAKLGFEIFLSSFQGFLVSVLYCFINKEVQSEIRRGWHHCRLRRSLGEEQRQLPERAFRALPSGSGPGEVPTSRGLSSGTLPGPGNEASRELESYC


What was measured:
[1] = target: human GLP-1 receptor (GLP-1R) (human, UniProt P43220 24-463); assay: cell-based or functional assay
[2] = target: T1, human gastric inhibitory peptide …; assay: cell-based or functional assay

| Binder | hGLP1R cAMP EC50 ratio [1] | hGLP1R cAMP Rel EC50 [1] | hGIPR cAMP EC50 ratio [2] | hGIPR cAMP Rel EC50 [2] |
| --- | --- | --- | --- | --- |
| YXEGTXTSDHSIXLDXKAQXTFIXYLIEGGPSSGAPPPS (Y-Aib-EGT-αMeF(2F)-TSDHSI-αMeF-LD-Dab-K((2-[2-(2-Amino-ethoxy)-ethoxy]-acetyl)2-(γ-Glu)-CO-(CH2)18-CO2H)AQ-Aib-TFI-(D-Glu)-YLIEGGPSSGAPPPS-NH2) [Example 172] | 0.038 | 1.2 nM | 0.1 | 1.05 nM |
| YXEGTXTSDHSIXLDXKAQXTFIXYLIEGGPSSGAPPPS (Y-Aib-EGT-αMeF(2F)-TSDHSI-αMeF-LD-Orn-K((2-[2-(2-Amino-ethoxy)-ethoxy]-acetyl)2-(γ-Glu)-CO-(CH2)18-CO2H)AQ-Aib-TFI-(D-Glu)-YLIEGGPSSGAPPPS-NH2) [Example 171] | 0.0609 | 0.75 nM | 0.471 | 0.223 nM |
| YXEGTXTSDHSIXLDXKAQXTFIXYLIEGGPSSGAPPPS (Y-Aib-EGT-αMeF(2F)-TSDHSI-αMeF-LD-Dap-K((2-[2-(2-Amino-ethoxy)-ethoxy]-acetyl)2-(γ-Glu)-CO-(CH2)18-CO2H)AQ-Aib-TFI-(D-Glu)-YLIEGGPSSGAPPPS-NH2) [Example 173] | 0.0373 | 1.23 nM | 0.179 | 0.586 nM |
| YXEGTXTSDHSIXLDEKAQXTFIXYLIEGGPSSGAPPPS (Y-Aib-EGT-αMeF(2F)-TSDHSI-αMeF-LDEK((2-[2-(2-Amino-ethoxy)-ethoxy]-acetyl)2-(γ-Glu)-CO-(CH2)14-CO2H)AQ-Aib-TFI-(D-Glu)-YLIEGGPSSGAPPPS-NH2) [Example 170] | 0.00438 | 10.4 nM | 0.185 | 0.569 nM |
| Y[Aib]EGT[αMePhe(2-F)]TSDHSI[αMeF]LDEK([AEEA-AEEA-γGlu-C20 diacid])AQ[Aib]TFI[dE][αMeF]LI[dE]GGPSSGAPPPS-NH2 (N-terminus assumed; SMILES CC[C@H](C)[C@H](NC(=O)[C@H](CC(C)C)NC(=O)[C@](C)(Cc1ccccc1)NC(=O)[C@@H](CCC(=O)O)NC(=O)[C@@H](NC(=O)[C@H](Cc1ccccc1)NC(=O)[C@@H](NC(=O)C(C)(C)NC(=O)[C@H](CCC(N)=O)NC(=O)[C@H](C)NC(=O)[C@H](CCCCNC(=O)COCCOCCNC(=O)COCCOCCNC(=O)CC[C@H](NC(=O)CCCCCCCCCCCCCCCCCCC(=O)O)C(=O)O)NC(=O)[C@H](CCC(=O)O)NC(=O)[C@H](CC(=O)O)NC(=O)[C@H](CC(C)C)NC(=O)[C@](C)(Cc1ccccc1)NC(=O)[C@@H](NC(=O)[C@H](CO)NC(=O)[C@H](Cc1c[nH]cn1)NC(=O)[C@H](CC(=O)O)NC(=O)[C@H](CO)NC(=O)[C@@H](NC(=O)[C@](C)(Cc1ccccc1F)NC(=O)[C@@H](NC(=O)CNC(=O)[C@H](CCC(=O)O)NC(=O)C(C)(C)NC(=O)[C@@H](N)Cc1ccc(O)cc1)[C@@H](C)O)[C@@H](C)O)[C@@H](C)CC)[C@@H](C)O)[C@@H](C)CC)C(=O)N[C@H](CCC(=O)O)C(=O)NCC(=O)NCC(=O)N1CCC[C@H]1C(=O)N[C@@H](CO)C(=O)N[C@@H](CO)C(=O)NCC(=O)N[C@@H](C)C(=O)N1CCC[C@H]1C(=O)N1CCC[C@H]1C(=O)N1CCC[C@H]1C(=O)N[C@@H](CO)C(N)=O) [Example 165] | 0.01 | 5.81 nM | 0.172 | 1.04 nM |
| H[Aib]EGT[αMePhe(2-F)]TSDYSI[αMeF]LDEK([AEEA-AEEA-γGlu-C20 diacid])AQ[Aib]EFIEYLIEGGPSSGAPPPS-NH2 (N-terminus assumed; SMILES CC[C@H](C)[C@H](NC(=O)[C@H](CC(C)C)NC(=O)[C@H](Cc1ccc(O)cc1)NC(=O)[C@H](CCC(=O)O)NC(=O)[C@@H](NC(=O)[C@H](Cc1ccccc1)NC(=O)[C@H](CCC(=O)O)NC(=O)C(C)(C)NC(=O)[C@H](CCC(N)=O)NC(=O)[C@H](C)NC(=O)[C@H](CCCCNC(=O)COCCOCCNC(=O)COCCOCCNC(=O)CC[C@H](NC(=O)CCCCCCCCCCCCCCCCCCC(=O)O)C(=O)O)NC(=O)[C@H](CCC(=O)O)NC(=O)[C@H](CC(=O)O)NC(=O)[C@H](CC(C)C)NC(=O)[C@](C)(Cc1ccccc1)NC(=O)[C@@H](NC(=O)[C@H](CO)NC(=O)[C@H](Cc1ccc(O)cc1)NC(=O)[C@H](CC(=O)O)NC(=O)[C@H](CO)NC(=O)[C@@H](NC(=O)[C@](C)(Cc1ccccc1F)NC(=O)[C@@H](NC(=O)CNC(=O)[C@H](CCC(=O)O)NC(=O)C(C)(C)NC(=O)[C@@H](N)Cc1c[nH]cn1)[C@@H](C)O)[C@@H](C)O)[C@@H](C)CC)[C@@H](C)CC)C(=O)N[C@@H](CCC(=O)O)C(=O)NCC(=O)NCC(=O)N1CCC[C@H]1C(=O)N[C@@H](CO)C(=O)N[C@@H](CO)C(=O)NCC(=O)N[C@@H](C)C(=O)N1CCC[C@H]1C(=O)N1CCC[C@H]1C(=O)N1CCC[C@H]1C(=O)N[C@@H](CO)C(N)=O) [Example 163] | 1.54 | 0.0316 nM | 1.29 | 0.121 nM |
